Data on one molecule can be found in paper PMC4454200.

This assay addresses Full-length mouse melanocyte-type myosin-5a (Myo5a-FL) (mouse) (UniProt Q99104).

Chain of Full-length mouse melanocyte-type myosin-5a (Myo5a-FL) (mouse) (Q99104 whole entry): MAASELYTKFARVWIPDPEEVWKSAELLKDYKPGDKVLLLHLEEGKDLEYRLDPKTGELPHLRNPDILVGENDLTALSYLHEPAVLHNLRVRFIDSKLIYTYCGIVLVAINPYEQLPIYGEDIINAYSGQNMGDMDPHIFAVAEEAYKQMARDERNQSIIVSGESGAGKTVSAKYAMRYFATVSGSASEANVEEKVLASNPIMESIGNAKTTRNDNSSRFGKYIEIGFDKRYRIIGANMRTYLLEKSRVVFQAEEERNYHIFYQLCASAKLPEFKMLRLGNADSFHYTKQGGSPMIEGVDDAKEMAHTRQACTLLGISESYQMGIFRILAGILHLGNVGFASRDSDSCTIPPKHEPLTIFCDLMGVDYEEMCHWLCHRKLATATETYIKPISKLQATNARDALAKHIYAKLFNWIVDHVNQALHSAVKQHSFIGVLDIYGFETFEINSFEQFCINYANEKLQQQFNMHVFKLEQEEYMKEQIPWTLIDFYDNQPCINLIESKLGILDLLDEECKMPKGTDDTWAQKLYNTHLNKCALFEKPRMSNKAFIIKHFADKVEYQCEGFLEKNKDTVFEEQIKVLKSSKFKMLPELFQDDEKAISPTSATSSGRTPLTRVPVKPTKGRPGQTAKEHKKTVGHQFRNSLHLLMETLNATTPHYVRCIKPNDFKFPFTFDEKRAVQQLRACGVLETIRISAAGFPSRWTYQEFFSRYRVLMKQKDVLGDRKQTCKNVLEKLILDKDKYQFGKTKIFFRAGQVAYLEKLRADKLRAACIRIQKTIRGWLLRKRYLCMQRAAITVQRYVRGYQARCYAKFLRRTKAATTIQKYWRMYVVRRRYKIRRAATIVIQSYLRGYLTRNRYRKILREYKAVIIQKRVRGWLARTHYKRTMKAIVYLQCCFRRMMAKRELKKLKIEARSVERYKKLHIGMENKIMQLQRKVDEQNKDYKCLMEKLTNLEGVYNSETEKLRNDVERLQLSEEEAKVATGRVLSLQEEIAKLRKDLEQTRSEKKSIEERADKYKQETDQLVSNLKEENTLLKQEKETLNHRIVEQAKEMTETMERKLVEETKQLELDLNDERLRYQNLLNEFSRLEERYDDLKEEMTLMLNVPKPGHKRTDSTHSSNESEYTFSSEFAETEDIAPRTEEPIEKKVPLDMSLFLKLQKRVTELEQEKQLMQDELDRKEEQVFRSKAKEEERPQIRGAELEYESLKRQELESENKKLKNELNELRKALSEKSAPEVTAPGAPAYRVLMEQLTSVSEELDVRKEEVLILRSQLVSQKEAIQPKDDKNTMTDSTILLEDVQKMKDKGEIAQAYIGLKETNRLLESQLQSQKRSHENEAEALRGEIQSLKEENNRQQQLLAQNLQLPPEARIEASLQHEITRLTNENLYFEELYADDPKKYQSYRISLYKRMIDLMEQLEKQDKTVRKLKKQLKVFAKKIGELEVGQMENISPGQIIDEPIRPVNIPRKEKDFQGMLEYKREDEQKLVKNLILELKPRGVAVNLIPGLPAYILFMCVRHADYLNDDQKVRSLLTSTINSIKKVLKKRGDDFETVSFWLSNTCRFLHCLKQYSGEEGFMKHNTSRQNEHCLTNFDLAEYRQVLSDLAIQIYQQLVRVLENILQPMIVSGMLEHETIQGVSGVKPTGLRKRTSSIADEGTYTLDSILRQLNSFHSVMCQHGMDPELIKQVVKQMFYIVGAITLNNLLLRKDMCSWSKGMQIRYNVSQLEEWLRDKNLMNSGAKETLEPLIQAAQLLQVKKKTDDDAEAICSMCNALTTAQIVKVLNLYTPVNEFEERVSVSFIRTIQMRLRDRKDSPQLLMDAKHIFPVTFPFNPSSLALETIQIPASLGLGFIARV

Regarding RDQPLNSKKKKRLLSFRDVDFEEDSDY [Mlph-GTBDP, 26-residue Myo5a-GTD binding peptide of melanophilin with a C-terminal tyrosine], the stimulation of the actin-activated ATPase activity of Myo5a-FL by Mlph-GTBDP (EGTA conditions, 40 uM actin), hyperbolic fit: apparent Kd stood at 19.8 µM.
